Results taken from the supplement of paper PMC9170038.

Tested on: MS2 coat protein
Test: apparent KD of MS2 coat protein; designed switch direction (-1 OFF switch, 1 ON switch): -1; higher = weaker reporter binding
How it was run: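 RNA switches sharing common flanks were transcribed by stalled E. coli RNA polymerase on Illumina chips. A doubling series of SNAP-549-labelled MS2 coat protein, from 0.7 or 1.5 nM to 3 µM, was applied in Tris-HCl pH 7.5 buffer with KCl, MgCl2, BSA, DTT, tRNA and Tween-20. Each step lasted 0.8–1.5 h at the bottom of the series and 10–20 min at the top. Normalised cluster fluorescence was curve-fitted, giving apparent KD as the per-design median over clusters.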

[1] = input ligand: microRNA oligo, concentration not stated
[2] = Eterna round: R95, input ligand: FMN 200 uM
[3] = Eterna round: R95, input ligand: microRNA oligo, concentration not stated
[4] = Eterna round: R95, input ligand: none

Sequence: AGAGUGGUGCGAGGAUAUACAUGAGGAUCACCCAUGUAAACGUGUGAGGCAAAGCCUCACACGAUGUAGAAGGCGCACUACUCA [Mat - Exclusion NG 2 - Mod of JL - D15] (Eterna round: R96, puzzle: Exclusion NG 2)
- apparent KD of MS2 coat protein (input ligand: FMN 200 uM): 17.3 nM
- apparent KD of MS2 coat protein [1]: 9.9 nM
- apparent KD of MS2 coat protein (input ligand: none): 15.8 nM

Sequence: AGAUAACAUGAGGAUCACCCAUGUGAGGAUAUUUACCCAAGAGCUUCGGCUCUCAGGUGAAGAAGGCACAUUGA [EX1 #58] (Eterna round: R97, puzzle: Exclusion 1)
- apparent KD of MS2 coat protein (input ligand: FMN 200 uM): 316 nM
- apparent KD of MS2 coat protein (input ligand: none): 86.4 nM

Sequence: AGAUCGUCAGGAUAUACAUGAGGAUCACCCAUGUGUAGUCCAAAUUUGACUACAACAUGUAGAAGGGACGAUCG [Exclusion 3 (MOD2 of #1 Marzena11)] (Eterna round: R97, puzzle: Exclusion 3)
- apparent KD of MS2 coat protein (input ligand: FMN 200 uM): 209 nM
- apparent KD of MS2 coat protein (input ligand: none): 44 nM

Sequence: AGAUCUAGGACAGGAUAUACUGAUGGCUUCAUCGAAGAUGAAGCCAUCACAUGAGGAUCACCCAUGUAGAAGGGUCCUAGAUCA [Omei Exc(NG) 2Av8] (Eterna round: R96, puzzle: Exclusion NG 2)
- apparent KD of MS2 coat protein [1]: 9.55 nM

Sequence: AGAUCUAGGACAGGAUAUAUAGAUGGCUUCAUCGAAGAUGAAGCCAUCACAUGAGGAUCACCCAUGUAGAAGGGUCCUAGAUCA [Omei Exc(NG) 2Av6] (Eterna round: R96, puzzle: Exclusion NG 2)
- apparent KD of MS2 coat protein (input ligand: FMN 200 uM): 10.9 nM
- apparent KD of MS2 coat protein [1]: 8.74 nM
- apparent KD of MS2 coat protein (input ligand: none): 10.3 nM

Sequence: AGAUGGCGAGGAUAUACAUGAGGAUCACCCAUGUGAGAAGAUAAAGUGAGGAAGAAAAGUAGAAGGCGCUGUCA [Mat - Exclusion 3 - Mod of Salish D23] (puzzle: Exclusion 3)
- apparent KD of MS2 coat protein [2]: 68.3 nM
- apparent KD of MS2 coat protein [3]: 44.9 nM
- apparent KD of MS2 coat protein [4]: 45.1 nM

Sequence: AGAUGGCGAGGAUAUACAUGAGGAUCACCCAUGUGAGAUAAAUAAGUGAGGAAGAAAAGUAGAAGGCGCUGUCA [Mat - Exclusion 3 - Mod of Salish D14] (puzzle: Exclusion 3)
- apparent KD of MS2 coat protein [3]: 74.3 nM

Sequence: AGAUGUAGAUACCGAUCCUACAUGAGGAUCACCCAUGUAGCUAGACGUGCUCGCGUAGCUCGUCAGACUACCAGUAG [salish99_TOv1_r3_087] (puzzle: Sensor v3, turn-off variant 1)
- apparent KD of MS2 coat protein [2]: 242 nM
- apparent KD of MS2 coat protein [3]: 156 nM
- apparent KD of MS2 coat protein [4]: 267 nM

Sequence: AGAUGUUAAGAGGAUAUCAGCCAAAACCGGCAGUGAGAAGGCUUGACAUGAGGAUCACCCAUGUUUUGCGGUAA [Islalaus] (Eterna round: R97, puzzle: Exclusion 6)
- apparent KD of MS2 coat protein (input ligand: FMN 200 uM): 397 nM
- apparent KD of MS2 coat protein (input ligand: none): 38.6 nM

Sequence: AGCAAGUUAAGGUUGAUGCACAUGAGGAUCACCCAUGUUCGUCUUACAUGGAAAGUGGACGCGUUUAUGGAAAGGAG [Eternabot (L2) Solution 36] (Eterna round: R97, puzzle: Sensor, turn-off variant 1)
- apparent KD of MS2 coat protein (input ligand: FMN 200 uM): 28.2 nM
- apparent KD of MS2 coat protein (input ligand: none): 28.2 nM

Sequence: AGCAGACGAGGAUAUAGAUUUAGAUACAUGAGGAUCACCCAUGUAUACAUGUAUUUAGAUUUAGAAGGCGUCUGCU [E5/14-A1] (Eterna round: R97, puzzle: Exclusion 5)
- apparent KD of MS2 coat protein (input ligand: FMN 200 uM): 1250 nM
- apparent KD of MS2 coat protein (input ligand: none): 1340 nM

Sequence: AGCAUGCUAGGAUAUACGGGACAUUAGGGUUCGUCGUAUGGACAUGAGGAUCACCCAUGUAGAAGGAGCGUGCA [Mat - Exclusion 2 - Mod of Hyphema - D93] (puzzle: Exclusion 2)
- apparent KD of MS2 coat protein [3]: 19.9 nM

Sequence: AGCCACAGAGGAUAUACAUACAUCCAGUAGUUAAGAAUAUUACAUGAGGAUCACCCAUGUAGAAGGCUGUGGCA [Omei Ex2 BD B7] (Eterna round: R97, puzzle: Exclusion 2)
- apparent KD of MS2 coat protein (input ligand: FMN 200 uM): 352 nM
- apparent KD of MS2 coat protein (input ligand: none): 35.4 nM

Sequence: AGCCUGUAAGUAGGAUAUAUGAUCAGGAAUGAAAUAGAAGGGCUUAGUGGACAUGAGGAUCACCCAUGUCAAUGGGUUCAUGCA [Edria] (Eterna round: R96, puzzle: Exclusion NG 1)
- apparent KD of MS2 coat protein (input ligand: FMN 200 uM): 15 nM
- apparent KD of MS2 coat protein [1]: 16 nM
- apparent KD of MS2 coat protein (input ligand: none): 22.5 nM

Sequence: AGCGAGGUAGGAUAUACAUGAGGAUCACCCAUGUGCUUGUAUGGCGUGGAACAUCGUAGUAGAAGGGCCGCGCC [EX3 #76] (Eterna round: R97, puzzle: Exclusion 3)
- apparent KD of MS2 coat protein (input ligand: FMN 200 uM): 21.9 nM
- apparent KD of MS2 coat protein (input ligand: none): 20.9 nM

Sequence: AGCUAGAUAGGAUAUGCCCGGGAUAACAUGAGGAUCACCCAUGUGACCGAUUCAUGUCCUGCAGAAGGGUUUGGGA [Mod of ViennaUCT 7 - Jieux - Exclusion 5] (Eterna round: R97, puzzle: Exclusion 5)
- apparent KD of MS2 coat protein (input ligand: FMN 200 uM): 15.1 nM
- apparent KD of MS2 coat protein (input ligand: none): 12.7 nM

Sequence: AGCUAGUCAGGAUAUUCUAAAUAUUACAUGAGGAUCACCCAUGUGAAUGGACAAGGGUGUGAAGAAGGGACUAGCG [Omei Ex5 A12] (Eterna round: R97, puzzle: Exclusion 5)
- apparent KD of MS2 coat protein (input ligand: FMN 200 uM): 262 nM
- apparent KD of MS2 coat protein (input ligand: none): 959 nM

Sequence: AGCUAGUCAGGAUAUUCUAUUAAUUACAUGAGGAUCACCCAUGUGAAUGGACGAGGGUGUGAAGAAGGGACUAGCG [Omei Ex5 A17] (Eterna round: R97, puzzle: Exclusion 5)
- apparent KD of MS2 coat protein (input ligand: FMN 200 uM): 94.4 nM
- apparent KD of MS2 coat protein (input ligand: none): 226 nM

Sequence: AGCUGUGGCCGAGGAUAUACAUGAGGAUCACCCAUGUUACAUAAUUAGGCCUGGUAACAGGCUCCGUAGAAGGCGGUCUCAGCA [Eli eng2 - 005] (Eterna round: R96, puzzle: Exclusion NG 2)
- apparent KD of MS2 coat protein (input ligand: FMN 200 uM): 13 nM
- apparent KD of MS2 coat protein [1]: 11.4 nM
- apparent KD of MS2 coat protein (input ligand: none): 15.3 nM

Sequence: AGCUGUGGCCGAGGAUAUCUAACAAUCCAAACCGAAAUAUAAUCGGACAUGAGGAUCACCCAUGUAGAGAAGGCGGUCUCAGCA [Eli eng2 - 075] (Eterna round: R96, puzzle: Exclusion NG 2)
- apparent KD of MS2 coat protein [1]: 32.7 nM

Sequence: AGCUGUGGCCGAGGAUAUCUAAUAUCUCAAACCGAAAUAUAAUCGGACAUGAGGAUCACCCAUGUAGAGAAGGCGGUCUCAGCA [Eli eng2 - 064] (Eterna round: R96, puzzle: Exclusion NG 2)
- apparent KD of MS2 coat protein [1]: 23.6 nM

Sequence: AGCUGUGGCCGAGGAUAUCUAUCCAAAAUAACCGAAAUAUAAUCGGACAUGAGGAUCACCCAUGUAGAGAAGGCGGUCUCAGCA [Eli eng2 - 087] (Eterna round: R96, puzzle: Exclusion NG 2)
- apparent KD of MS2 coat protein [1]: 18.6 nM

Sequence: AGGAAGCAAGGAUAUACGAGGAGAAGGUGGAGAUUUAAAGGACAUGAGGAUCACCCAUGUAGAAGGUGCGAGAA [JR_Exclu2_Sub046] (puzzle: Exclusion 2)
- apparent KD of MS2 coat protein [2]: 79.6 nM
- apparent KD of MS2 coat protein [3]: 44.3 nM
- apparent KD of MS2 coat protein [4]: 50.4 nM

Sequence: AGGCGCUCUGUUAGGAUAUUUGCUGACUACUAGGCGGAGAAGGAACAUGAGGAUCACCCAUGUAUACGAUCCGC [BmEX4 C.16] (Eterna round: R97, puzzle: Brourd's mod of Exclusion 4)
- apparent KD of MS2 coat protein (input ligand: FMN 200 uM): 13.7 nM
- apparent KD of MS2 coat protein (input ligand: none): 12.1 nM

Sequence: AGGGAACGAGGAUAUCGAUGGUGGAACAUGAGGAUCACCCAUGUAUGAGAUAGAGUAGGGCGAGAAGGCGUUAAGA [JR_E5_Sub051] (puzzle: Exclusion 5)
- apparent KD of MS2 coat protein [2]: 47.6 nM
- apparent KD of MS2 coat protein [3]: 55.6 nM
- apparent KD of MS2 coat protein [4]: 84.9 nM

Sequence: AGGGAAGAGUGAGGAUAUGGAAAUUUGGUGAGAACAUGAGGAUCACCCAUGUGGAAACAAGAAAAUUAGAAGGUAUAGGGAGGG [AK ExNG2-1.2] (Eterna round: R96, puzzle: Exclusion NG 2)
- apparent KD of MS2 coat protein (input ligand: FMN 200 uM): 48 nM
- apparent KD of MS2 coat protein [1]: 45.3 nM
- apparent KD of MS2 coat protein (input ligand: none): 61.3 nM

Sequence: AGGGACUAAGGAUAUACUUAGGAGAUAAACGACUGGUGAACACUUGAGGAUCACCCAAGUAGAAGGUAGUCAAA [Enonsoor] (Eterna round: R97, puzzle: Exclusion 2)
- apparent KD of MS2 coat protein (input ligand: FMN 200 uM): 135 nM
- apparent KD of MS2 coat protein (input ligand: none): 30.4 nM

Sequence: AGGGUAAAGUUAGGAUAUGCGAAUAAUCCAGACGCAGAAGGAACAGGUCGCAUGUGAGUCACAUGAGGAUCACCCAUGUAACUA [Ceissoar] (Eterna round: R96, puzzle: Exclusion NG 1)
- apparent KD of MS2 coat protein (input ligand: FMN 200 uM): 143 nM
- apparent KD of MS2 coat protein [1]: 29.6 nM
- apparent KD of MS2 coat protein (input ligand: none): 36.1 nM

Sequence: AGGUCACAUGAGGAUCACCCAUGUCAGGAUAUCGUCACUGGAGCCUCGGCUCCAGUGACGAGAAGGGAUAAUUA [E1/8-A2] (Eterna round: R97, puzzle: Exclusion 1)
- apparent KD of MS2 coat protein (input ligand: FMN 200 uM): 75.3 nM
- apparent KD of MS2 coat protein (input ligand: none): 50.5 nM

Sequence: AGGUCACAUGAGGAUCACCCAUGUGAGGAUAUUUACUCAAGAGCUUCGGCUCUCAGGUGAAGAAGGCGCAAUGA [EX1 #54] (Eterna round: R97, puzzle: Exclusion 1)
- apparent KD of MS2 coat protein (input ligand: FMN 200 uM): 27.2 nM
- apparent KD of MS2 coat protein (input ligand: none): 30 nM

Sequence: AGGUCCUUCUGGAGACAUGAGGAUCACCCAUGUCGGGUCAGCGAGGAUAUCGGUUAAUAAUGUGACGAGAAGGCGCGGACCGAU [Ex NG3 #56] (Eterna round: R96, puzzle: Exclusion NG 3)
- apparent KD of MS2 coat protein (input ligand: FMN 200 uM): 104 nM
- apparent KD of MS2 coat protein [1]: 19.5 nM
- apparent KD of MS2 coat protein (input ligand: none): 24.9 nM

Sequence: AGGUGUAGAGGAUAUCGAGUCCUUUACAUGAGGAUCACCCAUGUCCUGGGCACCCAGGACCGAGAAGGCUACACCA [Omei Ex5 D32] (Eterna round: R97, puzzle: Exclusion 5)
- apparent KD of MS2 coat protein (input ligand: FMN 200 uM): 353 nM
- apparent KD of MS2 coat protein (input ligand: none): 223 nM

Sequence: AGGUGUAGAGGAUAUCUCUUCUCUCACAUGAGGAUCACCCAUGUCCUAAAGUCCUAGGAGAGAGAAGGCUACACCA [Omei Ex5 D3] (Eterna round: R97, puzzle: Exclusion 5)
- apparent KD of MS2 coat protein (input ligand: FMN 200 uM): 230 nM
- apparent KD of MS2 coat protein (input ligand: none): 82.8 nM

Sequence: AGGUUGGGCGCAUCUUGCCACAUGAGGAUCACCCAUGUUGUACCAUUAGAAGAGAACAAGCUCUUUGCUCGUCUUAU [Sensor 1 S2] (Eterna round: R97, puzzle: Sensor, turn-off variant 1)
- apparent KD of MS2 coat protein (input ligand: FMN 200 uM): 32 nM
- apparent KD of MS2 coat protein (input ligand: none): 39.5 nM

Sequence: AGUAACAGAGGAUAUACUAUUUUAUGUGUUUGUUAUUUUGAACAUGAGGAUCACCCAUGUAGAAGGCUGAAUAA [JMF 93] (puzzle: Exclusion 2)
- apparent KD of MS2 coat protein [3]: 24 nM
